# Results taken from article PMC6698744.
# Read-outs that look alike come from different tables or passages of the source.
# Columns and labels:
# [1] = target: T1, A3Gctd-2K3A-E259A (UniProt Q9HC16 191-384, L234K;C243A;E259A;F310K;C321A;C356A); test: MST
# [2] = target: T1, A3Gctd-2K3A-E259A; test: MST; remark: listed apart in the source
# T1 sequence (Q9HC16 191-384 L234K/C243A/E259A/F310K/C321A/C356A): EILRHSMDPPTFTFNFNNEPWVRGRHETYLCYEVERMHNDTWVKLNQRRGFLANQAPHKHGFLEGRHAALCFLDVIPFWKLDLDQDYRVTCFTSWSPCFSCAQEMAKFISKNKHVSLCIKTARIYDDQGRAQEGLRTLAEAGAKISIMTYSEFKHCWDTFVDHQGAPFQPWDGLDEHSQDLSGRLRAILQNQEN
Binder,Kd [1],Kd [2]
AATCCCAAA (ssDNA) [5'-AATCCCAAA (substrate)],1570 ± 160 µM,–
"AATCCUAAA (ssDNA, deoxyuridine at position 6) [5'-AATCCdUAAA (intermediate product)]",2170 ± 250 µM,–
"AATCCCAAA (ssDNA, ribocytidine at position 6, rest DNA) [5'-AATCCrCAAA]",6650 ± 860 µM,–
"ATTCCCAATT (XNA, 2'-deoxy-2'-fluororibocytidine at position 6, rest DNA) [5'-ATTCC(2'-F-RNA)CAATT]",3760 ± 300 µM,–
"ATTCCCAATT (XNA, 2'-deoxy-2'-fluoroarabinocytidine at position 6, rest DNA) [5'-ATTCC(2'-F-ANA)CAATT]",–,1740 ± 490 µM
